Reference: paper PMC12361432
Residue numbers refer to the chain shown, from its start. In names and notes the source's numbering stands. Each block holds one molecule with its values, some of them ahead of it.

Columns and labels:
[1] = target: CCR9 R44A (human)
[2] = target: CCR9 K211A (human)
[3] = target: CCR9 K40A (human)
[4] = target: CCR9 Y202A (human)
[5] = target: CCR9 D296A (human)
[6] = target: CCR9 S292A (human)
[7] = target: CCR9 F299A (human); assay: flow cytometry on cells; TAMRA-labeled chemokine (four concentrations, highest 300 nM used to compare mutants) incubated 1 h with HEK293T cells expressing WT or mutant CCR9 in FACS buffer (1x PBS, 1 mM EDTA, 1% BSA); median fluorescence; nonspecific binding on parental HEK293T cells; binding ratios mutant:WT
[8] = target: CCR9 Y126A (human); assay: as above
[9] = target: T1, TAMRA-labeled CCL25 (CCL25(1-73), norleucine 64, C-terminal azidolysine coupled to TAMRA-PEG4-DBCO); assay: flow cytometry on cells; conditions: chain shown with the change; 300 nM TAMRA-CCL25; HEK293T cells; read off a plot
T1 chain: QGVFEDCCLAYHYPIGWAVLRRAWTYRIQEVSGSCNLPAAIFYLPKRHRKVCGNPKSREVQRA

B1: C-C chemokine receptor 9 (CCR9), wild type Y202A (protein)
chain: MTPTDFTSPIPNMADDYGSESTSSMEDYVNFNFTDFYCEKNNVRQFASHFLPPLYWLVFIVGALGNSLVILVYWYCTRVKTMTDMFLLNLAIADLLFLVTLPFWAIAAADQWKFQTFMCKVVNSMYKMNFYSCVLLIMCISVDRYIAIAQAMRAHTWREKRLLYSKMVCFTIWVLAAALCIPEILYSQIKEESGIAICTMVAPSDESTKLKSAVLTLKVILGFFLPFVVMACCYTIIIHTLIQAKKSSKHKALKVTITVLTVFVLSQFPYNCILLVQTIDAYAMFISNCAVSTNIDICFQVTQTIAFFHSCLNPVLYVFVGERFRRDLVKTLKNLGCISQAQWVSFTRREGSLKLSSMLLETTSGALSL
ratio to parent [9]: 0.73

B2: C-C chemokine receptor 9 (CCR9), wild type K211A (protein)
chain: B1 chain with A202Y, K211A
ratio to parent [9]: 1.1

B5: C-C chemokine receptor 9 (CCR9), wild type K40A (protein)
chain: B1 chain with K40A, A202Y
ratio to parent [9]: 0.83

The remaining lines, values ahead:

CCL25-induced Ca^2+ mobilization in HEK293T cells expressing the CCR9 mutant, area under the concentration-response curve against WT (CCL25 without dye) [1]: < 15% | CCL25-induced Ca^2+ mobilization in HEK293T cells expressing the CCR9 mutant, area under the concentration-response curve against WT (CCL25 without dye) [2]: < 15% | CCL25-induced Ca^2+ mobilization in HEK293T cells expressing the CCR9 mutant, area under the concentration-response curve against WT (CCL25 without dye) [3]: < 15% | CCL25-induced Ca^2+ mobilization in HEK293T cells expressing the CCR9 mutant, area under the concentration-response curve against WT (CCL25 without dye) [4]: < 15% | CCL25-induced Ca^2+ response in HEK293T cells expressing the CCR9 mutant, percent of WT output (CCL25 without dye) [5]: 15% | CCL25-induced Ca^2+ response in HEK293T cells expressing the CCR9 mutant, percent of WT output (CCL25 without dye) [6]: 48% | fold change in binding against WT CCR9 [7]: 2.2 fold | fold change in binding against WT CCR9 [8]: 2.5 fold
Molecule: TAMRA-labeled CCL25 (CCL25(1-73), norleucine 64, C-terminal azidolysine coupled to TAMRA-PEG4-DBCO) (ligand)

ratio to parent [9]: 0.61
B3: C-C chemokine receptor 9 (CCR9), wild type R44A (protein)
chain: B1 chain with R44A, A202Y

ratio to parent [9]: 0.66
B4: C-C chemokine receptor 9 (CCR9), wild type S292A (protein)
chain: B1 chain with A202Y, S292A

ratio to parent [9]: 0.81
B6: C-C chemokine receptor 9 (CCR9), wild type D296A (protein)
chain: B1 chain with A202Y, D296A
